Target: T1, CD3 epsilon homodimer protein (UniProt P07766 23-126)
T1 construct: also called CD3 (CD3 epsilon)
Assay: SPR, CD3 epsilon homodimer on chip, one-arm antibody as analyte;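 note: surface plasmon resonance at 25 °C with CD3 epsilon homodimer amine-coupled to a CM4 sensor chip, antibody injected as analyte, HBS-EP+ as running buffer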

T1 sequence (P07766 23-126): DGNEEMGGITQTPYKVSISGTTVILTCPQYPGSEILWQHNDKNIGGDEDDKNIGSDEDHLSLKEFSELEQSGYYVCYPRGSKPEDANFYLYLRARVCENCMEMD

KD ratio (KD of CE115HA000/KD of altered form)	Binder
0.8	CE115HA000 N54Q (antibody, human IgG1, kappa, L234A L235A, N297A, name in Kabat numbering, one-arm antibody) heavy: QVQLVESGGGVVQPGRSLRLSCAASGFTFSNAWMHWVRQAPGKGLEWVAQIKAKSNQYATYYAESVKGRFTISRDDSKNSLYLQMNSLKTEDTAVYYCRYVHYGAYYGVDAWGQGTTVTVSSASTKGPSVFPLAPSSKSTSGGTAALGCLVKDYFPEPVTVSWNSGALTSGVHTFPAVLQSSGLYSLSSVVTVPSSSLGTQTYICNVNHKPSNTKVDKKVEPKSCDKTHTCPPCPAPEAAGGPSVFLFPPKPKDTLMISRTPEVTCVVVDVSHEDPEVKFNWYVDGVEVHNAKTKPREEQYASTYRVVSVLTVLHQDWLNGKEYKCKVSNKALPAPIEKTISKAKGQPREPQVYTLPPSRCELTKNQVSLSCAVKGFYPSDIAVEWESNGQPENNYKTTPPVLDSDGSFFLVSKLTVDKSRWQQGNVFSCSVMHEALHNHYTQKSLSLSPDYKDDDDK EPKSSDKTHTCPPCPAPELLGGPSVFLFPPKPKDTLMISRTPEVTCVVVDVSHEDPEVKFNWYVDGVEVHNAKTKPREEQYNSTYRVVSVLTVLHQDWLNGKEYKCKVSNKALPAPIEKTISKAKGQPREPQVCTLPPSRDELTKNQVSLWCLVKGFYPSDIAVEWESNGQPENNYKTTPPVLDSDGSFFLYSKLTVDKSRWQQGNVFSCSVMHEALHNRYTQKSLSLSP light: DIVMTQSPLSLPVTPGEPASISCRSSQSLVHSNRNTYLHWYQQKPGQAPRLLIYKVSNRFSGVPDRFSGSGSGTDFTLKISRVEAEDVGVYYCGQGTQVPYTFGQGTKLEIKRTVAAPSVFIFPPSDEQLKSGTASVVCLLNNFYPREAKVQWKVDNALQSGNSQESVTEQDSKDSTYSLSSTLTLSKADYEKHKVYACEVTHQGLSSPVTKSFNRGEC
0.57	CE115HA000 N54S (antibody, human IgG1, kappa, L234A L235A, N297A, name in Kabat numbering, one-arm antibody) heavy: QVQLVESGGGVVQPGRSLRLSCAASGFTFSNAWMHWVRQAPGKGLEWVAQIKAKSNSYATYYAESVKGRFTISRDDSKNSLYLQMNSLKTEDTAVYYCRYVHYGAYYGVDAWGQGTTVTVSSASTKGPSVFPLAPSSKSTSGGTAALGCLVKDYFPEPVTVSWNSGALTSGVHTFPAVLQSSGLYSLSSVVTVPSSSLGTQTYICNVNHKPSNTKVDKKVEPKSCDKTHTCPPCPAPEAAGGPSVFLFPPKPKDTLMISRTPEVTCVVVDVSHEDPEVKFNWYVDGVEVHNAKTKPREEQYASTYRVVSVLTVLHQDWLNGKEYKCKVSNKALPAPIEKTISKAKGQPREPQVYTLPPSRCELTKNQVSLSCAVKGFYPSDIAVEWESNGQPENNYKTTPPVLDSDGSFFLVSKLTVDKSRWQQGNVFSCSVMHEALHNHYTQKSLSLSPDYKDDDDK EPKSSDKTHTCPPCPAPELLGGPSVFLFPPKPKDTLMISRTPEVTCVVVDVSHEDPEVKFNWYVDGVEVHNAKTKPREEQYNSTYRVVSVLTVLHQDWLNGKEYKCKVSNKALPAPIEKTISKAKGQPREPQVCTLPPSRDELTKNQVSLWCLVKGFYPSDIAVEWESNGQPENNYKTTPPVLDSDGSFFLYSKLTVDKSRWQQGNVFSCSVMHEALHNRYTQKSLSLSP light: DIVMTQSPLSLPVTPGEPASISCRSSQSLVHSNRNTYLHWYQQKPGQAPRLLIYKVSNRFSGVPDRFSGSGSGTDFTLKISRVEAEDVGVYYCGQGTQVPYTFGQGTKLEIKRTVAAPSVFIFPPSDEQLKSGTASVVCLLNNFYPREAKVQWKVDNALQSGNSQESVTEQDSKDSTYSLSSTLTLSKADYEKHKVYACEVTHQGLSSPVTKSFNRGEC

Reference: US20210388087A1 (Chugai, published 2021)
